In patent publication US20240044881A1:

Legend:
[1] = biological target: Type II ClyA-CS nanopore (Salmonella typhi) (UniProt Q8Z727)
[2] = biological target: Type I ClyA-CS nanopore (Salmonella typhi) (UniProt Q8Z727)
[3] = biological target: Type II ClyA-CS nanopore (Salmonella typhi) (UniProt Q8Z727); assay: single-channel current recording, planar lipid bilayer, -150 mV
[4] = biological target: Type I ClyA-CS nanopore (Salmonella typhi) (UniProt Q8Z727); assay: as above
[5] = biological target: Type II ClyA-CS nanopore (Salmonella typhi) (UniProt Q8Z727); assay: single-channel current recording, planar lipid bilayer, -35 mV
[6] = biological target: Type III ClyA-CS nanopore (Salmonella typhi) (UniProt Q8Z727); assay: as above
[7] = biological target: Type I ClyA-CS nanopore (Salmonella typhi) (UniProt Q8Z727); assay: as above

Work on “human thrombin (from UniProt P00734 328-622) (enzyme)” yielded an HT Dwell time at -150 mV [1] of 235 ms, an HT Dwell time at -150 mV [2] of 1 ms and an HT Level 2 (-150 mV), IRES, % (residual current) [3] of 31%. For the same substance, the HT Occupancy of L2 at -150 mV, % [3] was 100%, the HT Level 2 (-150 mV), IRES, % (residual current) [4] was 23% and the HT Occupancy of L2 at -150 mV, % [4] was 100%. The HT Level 1 at -35 mV, IRES % (residual current) [5] was 68%, the HT Level 2 at -35 mV, IRES % (residual current) [5] was 31% and the HT Level 2 at -35 mV, IRES % (residual current) [6] was 32%. It also gave an HT Occupancy of L2 at -35 mV, % [6] of 100%, a duration of HT blockades at -35 mV [6] of 55 ms and an HT Level 1 at -35 mV, IRES % (residual current) [7] of 56%. It also gave an HT Level 2 at -35 mV, IRES % (residual current) [7] of 23%, an HT Occupancy of L2 at -35 mV, % [7] of 30% and an occupancy of the more superficial binding site (level 1) at -35 mV, % [7] of 70%.
